Among the data in PMC2911679 (Biochemical Journal, 2010) are Kd values, retold here.

Experiment [1] addresses biotin-labelled calmodulin (CaM) (UniProt P0DP23 1-149, biotin (site not stated)). The experiment can be described thus: AlphaScreen or HTRF.
Experiment [2] has as its target biotinylated Impβ1 (GST-fusion protein, biotinylated with sulfo-NHS-biotin) (UniProt P70168 1-876, biotin (sulfo-NHS-biotin reagent; sites not stated)). The experiment in a line: AlphaScreen or HTRF.

biotinylated Impβ1 (GST-fusion protein, biotinylated with sulfo-NHS-biotin), sequence (P70168 whole entry, the tested form may be a part): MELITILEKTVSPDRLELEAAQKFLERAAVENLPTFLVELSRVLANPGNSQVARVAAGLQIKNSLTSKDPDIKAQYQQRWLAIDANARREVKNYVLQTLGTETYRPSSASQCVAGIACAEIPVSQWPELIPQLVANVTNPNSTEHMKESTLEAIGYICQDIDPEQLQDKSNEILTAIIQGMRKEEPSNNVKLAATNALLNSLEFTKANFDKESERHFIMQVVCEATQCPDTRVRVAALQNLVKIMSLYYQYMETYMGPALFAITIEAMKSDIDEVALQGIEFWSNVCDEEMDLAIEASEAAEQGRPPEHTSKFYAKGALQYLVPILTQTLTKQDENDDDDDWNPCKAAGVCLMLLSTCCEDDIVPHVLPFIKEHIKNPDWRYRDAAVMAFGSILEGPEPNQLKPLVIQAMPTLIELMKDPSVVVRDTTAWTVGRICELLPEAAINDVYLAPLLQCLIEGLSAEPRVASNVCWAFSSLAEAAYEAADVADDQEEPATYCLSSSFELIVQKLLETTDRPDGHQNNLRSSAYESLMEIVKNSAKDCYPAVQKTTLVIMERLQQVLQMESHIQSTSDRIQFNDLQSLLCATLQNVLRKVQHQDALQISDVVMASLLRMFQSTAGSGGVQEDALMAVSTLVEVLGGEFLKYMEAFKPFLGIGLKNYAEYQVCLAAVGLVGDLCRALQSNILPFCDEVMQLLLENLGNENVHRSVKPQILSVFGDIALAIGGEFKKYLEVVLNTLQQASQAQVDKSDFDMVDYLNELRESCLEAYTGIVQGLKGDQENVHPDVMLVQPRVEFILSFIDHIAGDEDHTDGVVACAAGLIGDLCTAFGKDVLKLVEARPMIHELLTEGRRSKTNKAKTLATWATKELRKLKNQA

B1: His6-tagged GFP–SRY-HMG, wild type (SRY residues 55–141) (domain or fragment)
chain: not shown
Consider B1, for which the Kd in experiment [1] was found to be 430 pM; in experiment [2], 940 pM.

B2: His6-tagged GFP–SRY-HMG R76P (SRY residues 55–141) (domain or fragment)
chain: not shown
In experiment [2], B2 had a Kd of 890 pM.

B3: His6-tagged GFP–SRY-HMG Y127C (SRY residues 55–141) (domain or fragment)
chain: not shown
As for B3, the Kd in experiment [1] was 620 pM; in experiment [2], 3600 pM.

B4: His6-tagged GFP–SRY-HMG F67V (SRY residues 55–141) (domain or fragment)
chain: not shown
For B4, the dissociation constant Kd in experiment [2] was found to be 1090 pM.

B5: His6-tagged GFP–SRY-HMG M64T (SRY residues 55–141) (domain or fragment)
chain: not shown
On to B5, for which, in experiment [2], the Kd turned out to be 1420 pM.
